For data set [1], the target named is FOXO1 (FLAG-tagged, transfected) (Homo sapiens) (UniProt Q12778). In words: cell_activity. As to conditions: 3xIRS-LUC in primary rat adipocytes, data not shown.
The target of data set [2] is T1, FOXO1 (FLAG-tagged, full-length) (Homo sapiens, UniProt Q12778 SEQ:126-780).
T1 chain: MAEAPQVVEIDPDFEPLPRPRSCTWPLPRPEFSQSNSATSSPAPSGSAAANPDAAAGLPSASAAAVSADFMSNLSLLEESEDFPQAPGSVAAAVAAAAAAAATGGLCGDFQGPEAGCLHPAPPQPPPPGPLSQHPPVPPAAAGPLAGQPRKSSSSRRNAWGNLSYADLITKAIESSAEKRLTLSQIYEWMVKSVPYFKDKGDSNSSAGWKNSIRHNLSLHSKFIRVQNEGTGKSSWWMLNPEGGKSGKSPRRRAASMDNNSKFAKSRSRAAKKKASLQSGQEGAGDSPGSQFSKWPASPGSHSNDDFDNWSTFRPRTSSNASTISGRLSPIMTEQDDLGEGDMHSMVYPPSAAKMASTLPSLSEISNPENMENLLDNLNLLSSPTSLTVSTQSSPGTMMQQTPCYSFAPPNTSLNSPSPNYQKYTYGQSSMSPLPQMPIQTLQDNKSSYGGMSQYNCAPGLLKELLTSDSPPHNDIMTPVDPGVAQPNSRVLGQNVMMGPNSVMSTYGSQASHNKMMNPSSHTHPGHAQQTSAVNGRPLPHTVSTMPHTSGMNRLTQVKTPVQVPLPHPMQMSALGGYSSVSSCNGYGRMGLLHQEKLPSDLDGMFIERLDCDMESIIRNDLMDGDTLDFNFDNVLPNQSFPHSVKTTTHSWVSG
Kind of data set: EMSA; competed by 100x and 200x unlabeled probe; supershift with anti-FLAG and anti-FOXO1 H-128, not N-18; 50 mM KCl, 1 mM EDTA, pH 7.9, poly(dI-dC), 25 C. As to conditions: tags: FLAG; TnT reticulocyte lysate; label: 32P. On the procedure: (vi) In vitro Translation and Electrophoretic Mobility Shift Assay (EMSA)—In vitro translation of FOXO1 proteins and EMSA studies were performed as described (Armoni et al., 2003). The TnT SP6/T7-coupled reticulocyte lysate system (Promega, Madison Wis.) was used to generate in vitro translated FLAG-tagged FOXO1 proteins from the corresponding cDNA, and the resulting protein lysate was used in EMSA. Protein expression was confirmed by SDS-PAGE, followed by phosphorimaging analysis of proteins translated in the presence of ³⁵S-methionine (cell labeling grade; Amersham, Buckinghamshire, UK). In vitro translation reactions generated sufficient protein to use in EMSA studies. Sense and antisense PPARγ promoter-derived oligonucleotides were synthesized that correspond to bp 270-310 of hG2-587 (sense: […] TGGGT […]) (SEQ ID NO: 4); these were annealed and end-labeled with γ-³²P-ATP (6000 Ci/mmol; Amersham, Buckinghamshire, UK) in the presence of polynucleotide kinase. Protein-DNA binding reactions were assembled in a total volume of 20 μl, which included 4 μl of the in vitro translated FOXO1 lysate, radiolabeled probe (˜75,000 cpm), and 4 μg of poly(dI-dC) in a buffer containing 10 mM HEPES (pH 7.9), 1 mM dithiothreitol, 1 mM EDTA, 4% Ficoll, and 50 mM KCl. […] Gels were fixed in 10% acetic acid for 15 min, dried, and analyzed by phosphorimaging.
Background: A gel shift assay detects complexes by their altered migration in electrophoresis.

The values below come from patent publication US20080248995, “Modulation of PPARgamma2 gene promoter by FOXO1” (Technion Research and Development Foundation Ltd., published 2008).

“3xIRS (three insulin response element repeats) in pGL2-LUC” came in with an activity (fold activation) in data set [1] below 8.5.

B1: hPPARγ2 promoter bp 270-310 (dsDNA)
DNA 1: GACACTGAACATGTGGGTCACCGGCGAGACAGTGTGGCAA
DNA 2: TTGCCACACTGTCTCGCCGGTGACCCACATGTTCAGTGTC
Regarding B1, the binding result in data set [2] is “binds”.
